Bridge positions count the residues as written; N and C are the ends. Square brackets hold non-standard residues; d marks the D form. Primed or numbered codes have the meaning given here. Ends that are not written are not given here. * marks the point of attachment. Man9GlcNAc2 = CC(=O)N[C@@H]1[C@@H](O)[C@H](O[C@@H]2O[C@H](CO)[C@@H](O[C@@H]3O[C@H](CO[C@H]4O[C@H](CO[C@H]5O[C@H](CO)[C@@H](O)[C@H](O)[C@@H]5O[C@H]5O[C@H](CO)[C@@H](O)[C@H](O)[C@@H]5O)[C@@H](O)[C@H](O[C@H]5O[C@H](CO)[C@@H](O)[C@H](O)[C@@H]5O[C@H]5O[C@H](CO)[C@@H](O)[C@H](O)[C@@H]5O)[C@@H]4O)[C@@H](O)[C@H](O[C@H]4O[C@H](CO)[C@@H](O)[C@H](O)[C@@H]4O[C@H]4O[C@H](CO)[C@@H](O)[C@H](O)[C@@H]4O[C@H]4O[C@H](CO)[C@@H](O)[C@H](O)[C@@H]4O)[C@@H]3O)[C@H](O)[C@H]2NC(C)=O)[C@@H](CO)O[C@H]1*; Hpra′ = its azide, alkyne or alkene has reacted where a group follows in round brackets
B1: H1 mutant with IGDIR changed to IAAIA (peptide 5) (peptide)
chain: YTEKHNGIAAIAPAIC[Hpra′](Man9GlcNAc2)NSKNQNHRCNHYQIKLYIH[Hpra′](Man9GlcNAc2)L[Hpra′](Man9GlcNAc2)RLPHNYRNS
modifications: not fully specified (C-terminus); cysteine pairing not given here; also: Man9GlcNAc2 attached by CuAAC, biotin on the C-terminal lysine (no K at C-terminus of given chain)
B2: acyclic H1 variant (peptide 7) (peptide)
chain: YTEKHNGIGDIRPAIC(iodoacetamide)[Hpra′](Man9GlcNAc2)NSKNQNHRC(iodoacetamide)NHYQIKLYIH[Hpra′](Man9GlcNAc2)L[Hpra′](Man9GlcNAc2)RLPHNYRNS
modifications: not fully specified (C-terminus); also: Man9GlcNAc2 attached by CuAAC, biotin on the C-terminal lysine (no K at C-terminus of given chain)
B3: H22 glycopeptide (peptide 2) (peptide)
chain: LFKPYPKIGDIRKARC[Hpra′](Man9GlcNAc2)LQHTLHHRTNKQPSYRRRLKTLIPLFRRC[Hpra′](Man9GlcNAc2)L
modifications: not fully specified (C-terminus); cysteine pairing not given here; also: Man9GlcNAc2 attached by CuAAC, biotin on the C-terminal lysine (no K at C-terminus of given chain)
B4: L1 glycopeptide (peptide 8) (peptide)
chain: SIKLINQ[Hpra′](Man9GlcNAc2)[Hpra′](Man9GlcNAc2)TTNPHLRLHIGDIRRLIKDLY[Hpra′](Man9GlcNAc2)FRVYYRPTNSGRRLFVN
modifications: not fully specified (C-terminus); also: Man9GlcNAc2 attached by CuAAC, biotin on the C-terminal lysine (no K at C-terminus of given chain)
B5: gl-PGT121 (protein)
chain 1: SYVLTQPPSVSVAPGQTARITCGGNNIGSKSVHWYQQKPGQAPVLVVYDDSDRPSGIPERFSGSNSGNTATLTISRVEAGDEADYYCQVWDSSSDHPWVFGGGTKLTVLGQPKAAPSVTLFPPSSEELQANKATLVCLISDFYPGAVTVAWKADSSPVKAGVETTTPSKQSNNKYAASSYLSLTPEQWKSHRSYSCQVTHEGSTVEKTVAPTECS
chain 2: QVQLQESGPGLVKPSETLSLTCTVSGGSISSYYWSWIRQPPGKGLEWIGYIYYSGSTNYNPSLKSRVTISVDTSKNQFSLKLSSVTAADTAVYYCARTQQGKRIYGVVSFGDYYYYYYMDVWGKGTTVTVSSASTKGPSVFPLAPSSKSTSGGTAALGCLVKDYFPEPVTVSWNSGALTSGVHTFPAVLQSSGLYSLSSVVTVPSSSLGTQTYICNVNHKPSNTKVDKRVEPKSCDKTHHHHHH
B6: m2 (protein)
chain 1: QVHLQESGPGLVKPSETLSLTCNVSGTLVRDNYWSWIRQPLGKQPEWIGYVHDSGDTNYNPSLKSRVHLSLDKSKNLVSLRLTGVTAADSAIYYCATTKHGRRIYGVVAFKEWFTYFYMDVWGKGTSVTVSS
chain 2: APTFVSVAPGQTARITCGEESLGSRSVIWYQQRPGQAPSLIIYNNNDRPSGIPDRFSGSPGSTFGTTATLTITSVEAGDEADYYCHIWDSRRPTNWVFGEGTTLIVL
B7: H1 glycopeptide (peptide 1) (peptide)
chain: YTEKHNGIGDIRPAIC[Hpra′](Man9GlcNAc2)NSKNQNHRCNHYQIKLYIH[Hpra′](Man9GlcNAc2)L[Hpra′](Man9GlcNAc2)RLPHNYRNS
modifications: linker 16-26 via m‑dibromoxylene (inferred); not fully specified (C-terminus); also: Man9GlcNAc2 attached by CuAAC, biotin on the C-terminal lysine (no K at C-terminus of given chain)
B8: PGT128 (antibody, V domains shown)
VH: QPQLQESGPTLVEASETLSLTCAVSGDSTAACNSFWGWVRQPPGKGLEWVGSLSHCASYWNRGWTYHNPSLKSRLTLALDTPKNLVFLKLNSVTAADTATYYCARFGGEVLRYTDWPKPAWVDLWGRGTLVTVSS
VL: QSALTQPPSASGSPGQSITISCTGTSNNFVSWYQQHAGKAPKLVIYDVNKRPSGVPDRFSGSKSGNTASLTVSGLQTDDEAVYYCGSLVGNWDVIFGGGTKLTVL

Assays:
Test in all cases: BLI
[1] = biological target: B8
[2] = biological target: B8; remark: listed apart in the source
[3] = biological target: m14
[4] = biological target: GB1R-non-glycosylated peptide (12)
[5] = biological target: m13
[6] = biological target: m12
[7] = biological target: random scrambled version of the H1 sequence containing three glycans and cyclization (peptide 6) (three Man9GlcNAc2 glycans attached by CuAAC on homopropargylglycine (printed as M); cyclized; biotin on the C-terminal lysine)
[8] = biological target: H1 mutant without the glycans at the second and third glycosylation sites (peptide 4) (Man9GlcNAc2 by CuAAC on homopropargylglycine at the first glycosylation site only; biotin on the C-terminal lysine)
[9] = biological target: H1 mutant without the glycan at the first of the three glycosylation sites (peptide 3) (Man9GlcNAc2 by CuAAC on homopropargylglycine at the second and third glycosylation sites only; biotin on the C-terminal lysine)

**Q.** How did the koff [1] turn out when B1 was run?
**A.** 0.00212 s⁻¹

**Q.** And the Kd [2]?
**A.** 12.4 nM

**Q.** Which koff [1] does the source give for B2 here?
**A.** 0.00616 s⁻¹

**Q.** For B3, which koff [1] is on record?
**A.** 0.00635 s⁻¹

**Q.** For B4, which koff [1] is on record?
**A.** 0.000645 s⁻¹

**Q.** B5 was tested. Which Kd [3] did it give?
**A.** 570 nM

**Q.** What about the koff [3] of the same binder?
**A.** 0.00262 s⁻¹

**Q.** What about the Kd [4] of the same binder?
**A.** 710 nM

**Q.** And the koff [4]?
**A.** 0.00199 s⁻¹

**Q.** What does the source list for B6?
**A.** koff [5]: 0.000202 s⁻¹; koff [6]: 0.000802 s⁻¹

**Q.** Which koff [1] does the source give for B7 here?
**A.** 6.3e-05 s⁻¹

**Q.** Which koff [7] does the source give for B8 here?
**A.** 0.0132 s⁻¹

**Q.** What about the Kd [8] of the same binder?
**A.** 21.1 nM

**Q.** What about the koff [8] of the same binder?
**A.** 0.00221 s⁻¹

**Q.** What about the Kd [9] of the same binder?
**A.** 0.94 nM

**Q.** And the koff [9]?
**A.** 5.6e-05 s⁻¹

Reference: paper PMC12291119 (2025)
